Results as given in publication PMC2902421, “Molecular cloning and biochemical characterization of a novel erythrose reductase from Candida magnoliae JH110” (Microbial Cell Factories, 2010).

Tests used:
Assay type in all cases: biochemical, Entelexis paramagnoliae
[1] = substrate: NC(=O)c1ccc[n+]([C@@H]2O[C@H](COP(=O)(O)OP(=O)(O)OC[C@H]3O[C@@H](n4cnc5c(N)ncnc54)[C@H](OP(=O)(O)O)[C@@H]3O)[C@@H](O)[C@H]2O)c1; assay: steady-state kinetics; reaction not stated; settings: co-substrate not given; NADP+-dependent erythritol oxidation stated as not observed; varied: cofactor
Source text: steady-state kinetics; reaction not stated on CmER (C. magnoliae JH110 erythrose reductase; CmER2 in Table 2)

[2] = substrate: O=Cc1ccc([N+](=O)[O-])cc1; assay: purified protein; settings: NADPH in excess, pH 5.5 and 42 °C (given for D-erythrose)
[3] = substrate: NC(=O)C1=CN([C@@H]2O[C@H](COP(=O)(O)OP(=O)(O)OC[C@H]3O[C@@H](n4cnc5c(N)ncnc54)[C@H](OP(=O)(O)O)[C@@H]3O)[C@@H](O)[C@H]2O)C=CC1; assay: purified protein; settings: D-erythrose saturating, pH 5.5, 42 °C, varied: cofactor

B1: CmER (C. magnoliae JH110 erythrose reductase; CmER2 in Table 2) (Entelexis paramagnoliae) (protein)
chain: MSSTYTLTRLSAPSMVLNSGSQIPAVGYGLWKQQGSEAKDSVRCAIESGYRHLDCATAYQNHKEVGQAIREAGVPRDELWITSKVWGTHFDNPEEGLDDILEELGVEYLDLLLLHLPVAFKRNPEDPKQLRGLPVDHDMKYADVWARMEKLPKSKVRNIGVSNLTVRALDELLQTAKVTPAVNQVEMHPNLPQKKLLDYCKSKGIVVQAYSPLAQGQHENPVVTDIADDLGVSPAQVVLSWGALRGTNILPKSSTPSRIRENLELIQLSDDHMRRIDALARR
notes: N-terminal GST fusion (pGEX-5X-3) in E. coli BL21 with chaperones, GST removed by Factor Xa
Km [1]: 240 ± 40 µM | kcat [1]: 0.84 ± 0.06 s⁻¹ | kcat/Km [1]: 3500 M⁻¹ s⁻¹ | Km [2]: 170 ± 10 µM | kcat [2]: 1.4 ± 0.1 s⁻¹ | kcat/Km [2]: 8200 M⁻¹ s⁻¹ | Km [3]: 16 ± 10 µM | kcat [3]: 48 ± 2.5 s⁻¹ | kcat/Km [3]: 3e+06 M⁻¹ s⁻¹
